Reference: PMC13317680, “Molecular architecture of the human citrate synthase–malate dehydrogenase 2 metabolon” (Acta Crystallographica Section D: Structural Biology, 2026)
Each block holds one molecule with its values, some of them ahead of it.

Tests used:
[1] = target: Human citrate synthase (human) (UniProt O75390)
[2] = target: Human citrate synthase (human) (UniProt O75390); test: SEC-SAXS; glutaraldehyde cross-linked hMDH2-hCS; Shodex KW-803, 50 mM sodium phosphate pH 7, 100 mM NaCl, 2 mM DTT, 2% glycerol, 10°C; LightDock models fitted with FoXS
[3] = target: the molecule itself; test: SAXS (SEC-SAXS and HT-SAXS); hCS alone, 0.07-2.0 mg/ml in 50 mM Tris-HCl, 100 mM NaCl, 0.1 mM EDTA pH 7.5, 10°C; data compared with crystal structures and a normal-mode model (FoXS)

NADH production (A340), hMDH2 titrated into 2.5 µM hCS at hMDH2:hCS molar ratios 0:1 to 3:1; no saturation (hMDH2 dimer per hCS dimer) [1]: > 1
stoichiometry N (hMDH2 (dimer) per hCS (dimer)) [2]: 2
Molecule: Human mitochondrial malate dehydrogenase 2 (from UniProt P40926-1 25-338) (enzyme)

B1: Human citrate synthase (enzyme, UniProt O75390 28-466, looked up)
chain: ASSTNLKDILADLIPKEQARIKTFRQQHGKTVVGQITVDMMYGGMRGMKGLVYETSVLDPDEGIRFRGFSIPECQKLLPKAKGGEEPLPEGLFWLLVTGHIPTEEQVSWLSKEWAKRAALPSHVVTMLDNFPTNLHPMSQLSAAVTALNSESNFARAYAQGISRTKYWELIYEDSMDLIAKLPCVAAKIYRNLYREGSGIGAIDSNLDWSHNFTNMLGYTDHQFTELTRLYLTIHSDHEGGNVSAHTSHLVGSALSDPYLSFAAAMNGLAGPLHGLANQEVLVWLTQLQKEVGKDVSDEKLRDYIWNTLNSGRVVPGYGHAVLRKTDPRYTCQREFALKHLPNDPMFKLVAQLYKIVPNVLLEQGKAKNPWPNVDAHSGVLLQYYGMTEMNYYTVLFGVSRALGVLAQLIWSRALGFPLERPKSMSTEGLMKFVDSKSG
notes: Human citrate synthase, mitochondrial, UniProt O75390, amino acids 28-466; Dimer in solution by SAXS; PDB 5uzr was the starting model for the SAXS fit; also called hCS; CS; source: E. coli, purified (HisTrap nickel column, Sephacryl S200 SEC)
stoichiometry N [3]: 2
